Source: publication PMC8584237, “Helicobacter pylori Neutrophil-Activating Protein Directly Interacts with and Activates Toll-like Receptor 2 to Induce the Secretion of Interleukin-8 from Neutrophils and ATRA-Induced Differentiated HL-60 Cells” (International Journal of Molecular Sciences, 2021)

Biological target: T1, Recombinant human TLR2 protein Glu21-Leu590, with a C-terminal 10-His tag (human, UniProt O60603 21-590)
T1 construct: Human Toll-like receptor 2, residues Glu21-Leu590; In the functional rows the TLR2 is the endogenous receptor on neutrophils or ATRA-differentiated HL-60 cells, not this soluble construct; also called TLR2-10xHis; Toll-like receptor 2; source: bought: R&D Systems (Cat. # 2616-TR-050); not shown: His10, C-terminal, kept
Assay: ELISA; Competitive ELISA: 0.625 μg TLR2-10xHis in 100 µL PBS-T pre-incubated with 0.78125-50 μg Pam3CSK4 or BSA (control), then added to wells coated with 0.05 µg HP-NAP, room temperature 2 h; detected with anti-6x His tag antibody
Conditions: both partners purified

T1 sequence (O60603 21-590): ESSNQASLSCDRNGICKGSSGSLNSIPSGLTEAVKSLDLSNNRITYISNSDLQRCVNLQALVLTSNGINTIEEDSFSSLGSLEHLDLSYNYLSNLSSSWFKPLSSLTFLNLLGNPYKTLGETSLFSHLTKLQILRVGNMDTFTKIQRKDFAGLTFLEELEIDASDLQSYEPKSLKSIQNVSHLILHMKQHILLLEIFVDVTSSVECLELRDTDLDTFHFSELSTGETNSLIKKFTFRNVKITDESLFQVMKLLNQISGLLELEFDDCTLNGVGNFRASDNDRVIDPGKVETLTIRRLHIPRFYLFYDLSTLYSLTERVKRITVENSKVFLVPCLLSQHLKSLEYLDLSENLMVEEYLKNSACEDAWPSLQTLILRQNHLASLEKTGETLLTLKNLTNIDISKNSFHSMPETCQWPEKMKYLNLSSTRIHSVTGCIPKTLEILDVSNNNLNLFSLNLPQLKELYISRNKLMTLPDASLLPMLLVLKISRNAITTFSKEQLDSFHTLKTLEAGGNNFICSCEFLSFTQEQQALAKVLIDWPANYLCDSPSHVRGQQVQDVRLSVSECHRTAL

B1: Helicobacter pylori neutrophil-activating protein (natural protein)
chain: MKTFEILKHLQADAIVLFMKVHNFHWNVKGTDFFNVHKATEEIYEEFADMFDDLAERIVQLGHHPLVTLSEAIKLTRVKEETKTSFHSKDIFKEILEDYKYLEKEFKELSNTAEKEGDKVTVTYADDQLAKLQKSIWMLQAHLA
notes: also called HP-NAP; NAP; source: E. coli BL21(DE3) carrying pET42a-NAP, purified (two gel-filtration steps: Sephacryl S-300, Superdex 200; endotoxin removed); copies: 12
binding result: binds
